B1: GS1894: dsRNA trigger SEQ ID NO 123; gene target eka-like_protein (nucleic acid)
chain: AAAGGTAGTGGCTCTGGGTCTGGAAAAGGGAAAAATGTAGAAAAGAATGTTGCTGTTGCAACCCCTAAATTACCAAAACCTCCCCAAACCTCACTGAACACATGGGTTACTGTGGCTCGAAATGGTCAGAAGAAGGCCCGAGTTCTTCAAAATAATAATATACACACCACCCCGATGAGTAAAATAAGACCACGAGTATCAATTGTGGAGAGAGCCTCAGCTGCTCCGACAGATAATAGGCTGTTTCTCCGTCTCCCCCAAGAACATGAATGGCGAAAGCTTTCTCCTGCTGAAATACGTAAGGTAATTTTAAAGAAACTTTCAATCTCACCCGTATTGGTTGGGAATACGTGAGGTAATTGTACATTGGTTGGGAAAATTAA
B2: GS1890: dsRNA trigger SEQ ID NO 154; gene target Pre-rRNA-processing protein FHL1 (nucleic acid)
chain: TAAAGGAATTGAAGGAGGAAAATTTGATGATGGATTGATAACAGACGGTACTTGCCCATTTATACGAGGTGGTAGCTGATAATTTGAAAAGTGACCTAATTGATTATGTGAAGATTCCATCGGGGCCCTGTACGTAAAGTGGCCTGCTATCTTTGAGAGACCATTTTGATAAGGAGTTTGTTGCAGACCTAGATAAGATTGAGGAGGCGGAGTAGCTCTCCTTTTTTTCTCTTTTTCAATAGATATACCGTCAACGATTCCCCAAGTCCAGCCTTTTCCATCCTTTTCAACTTTGCGGAAAGCATGGTGTTGTGATAGATTGTGACGAACACTACTTTGCCAGCCTAAGGTTTGAGTTTTAAATCTGAAATATGGGTATTTCCTGTATATAGCTCGGTAGATGT
B3: GS1891: dsRNA trigger SEQ ID NO 122; gene target eka-like_protein (nucleic acid)
chain: CACCAACTGGGTGTCAGTACTAATACCAACAGTTCCAGCTGTTTTACATAAAGAACAAGGAGTAGTTGAAGTGAGCAACAGCATGCTTGCTGATGAGGTGGAACGTGTCTGCTCTGTGCGGCCAGCTCACATAAAGCTTTATGGAAGAAATAAACCTGAGGCACCGTATCGAACATGGATGGCTTTCTTCCCGAAAGCTCCACGCGGCACTTTTAAAGTGTTCGACGAATCTGGAATTGCGAGCGAGGTCTTTTAAAAAGCAGCAACCTCTCGAATTTTGTAAAAGATGCAATGGGCACCACTCTATTAAAAATTGCTCAAGGGCTCCTTCGTGCGGAAATTGTGGCTCGACCAATCATACCGAGGATTTATGTATGGCCGCAACTAAGTGTAGAAATTGTGG
B4: GS1893: dsRNA trigger SEQ ID NO 124; gene target C2H2 zinc finger domain (nucleic acid)
chain: CACAACCTTGGGTCTGTCCTTAATTTTTCCACCAAATAATCAATCCTACGACCATTGCGTGGGACAATAATTCAATAAGGAAAATTTAAATAAAAAAAAATTTAAAAAAAAAGAAAAAGAAAAAATTTAATTAAAATCCATAATAAATACTCTGTTAATATTTACAAGGGAATCTTAATTATTCAACCAACCAATTATCTCGGAAAAGGATAAAGGAGTTGGTTTACATCTAACGATTAGAAAGCCTTTGAACCTAGTATGCCCAATTCTCTTCATATGGATACCCAGTTTCACTCAAACAATATGAATAGCAGTACAGCGAATTATAGTTCATTGCCTAGCATTTCGCCTCATCAACTGCAGCAGCAAAATCAAATGCCGACTCATATTCT
B5: GS1892: dsRNA trigger SEQ ID NO 148; gene target COP9 signalosome complex subunit 5 (nucleic acid)
chain: CGAGCTCTTATAGTGTGAGATCTGCAGCGAGTAGTATCTACTACTATGGGCACCGAAATCTTCGATCTTAGATAGTGGTATCGTTTGATAACCATCGTTAGTTGACGATTCTGCCGCCTTGTAGTTTTCTGGATAGGTCCGGAATGCACCTATTTCAACCTTACCAGCTGAGATGGTGCGATCTGGGTCAATGACAACCGCAAGAAAAGGATCCGAGAATGATTGCTGTATATGCTGTGTGCTAACATCTATGCCACTGAGCCAGCAGCCATAGCCTGGATGACTGTGGTACCACCCCACTGCATTCTCTAACTTTCCTTGCTCTCGACATGCCTGGAGATAACGAACCATATATTCATTTGCCTCATCTTGGGCATTAACACGTGTCTCCGTGCCTTC
B6: GS1888: dsRNA trigger SEQ ID NO 182; gene target Succinate dehydrogenase [ubiquinone] iron-sulfur subunit, mitochondrial (nucleic acid)
chain: TTTTAGGCGTTACAATCTTCAATAAATAACTAACATCGATAACAGGTCGTATACCAGCAGATACTAGTAAAGAAACGAAGATTTACCCCCTTCCTCATACCTATGTAGTTAAGGACATCGTCCCAGATCTCACACAGTTTTACAAACAGTATAAGTCCATCAAGCCATACCTTCAACGTACATCTCCCTCACCCAATGGTAAAGAATATCTACAAAGTAAGGAGGACAGAAAAAAACTCGATGGGTTATATGAGTGCATTTTGTGCGCATGCTGTTCTACTTCATGCCCCTCTTACTGGTGGAACTCTGAAGAATACTTGGGCCCAGCTGTTCTGATGCAAAGCTATAGATGGTTAGCAGATTCTCGAGATGAAAAGACAGCTGAGCGAAAGAGTGCTCTGGATAATAGTATGAGTCTCTATCGATGTCATACCATATTAAATTGTT
B7: ES45: dsRNA trigger SEQ ID NO 109; gene target Hypotethical effector (nucleic acid)
DNA: CTCACCTTGGCATCTACGAAGCCGACAGGAAGGTGGTGGCTACTATGGCCAACCATCGAATGGTGATGGAAGTGTGTATCCACCTTCATCTGGTACAGGTGGCTTTCTATCGCCAACTGCTACGAGCGGTTATCCGTCTGCAACTGGAACTGGCGGCTATTCATCTCCATCGGGCACCGGTGGCTACCCGTCTGCAACAGTTGAAAAAGACAATATTTCGAAGTTCCCGAGAGCTTTCGTATCCGGCAATGACTGCATCACGTCGAATTTCTACGATCCAAGACGAAAATAGTTTGTTTTTTTGCTGTTGGCGTGGAGTCTAGCTGTTGTGTACCCGAACCCTATTCGGATCATCAAATAGGATTGTAAGTTGGTTCATCATTTTATGAACAGATTCAAATTGTATTACCCCATTCTTAATCAATACCATGCAGGTGTGACTGACAGTC
B8: GS1895: dsRNA trigger SEQ ID NO 125; gene target eka-like_protein (nucleic acid)
chain: ACGCGCGGCTAATGATATGCACAATGCACGGTGATTAGTAGCATAGATAGTACATTAGCGACTTTTACAAAAGAAGTAGAGATAGAAGAGGCTGTAGCTTTCAAAGCGTACCTCAAACTTGCAATAGCAAACTTTGCAGCAGTAGATTCGTCCCCTCCTCCACCTCGTGTCCCATTACATACAAGACCGAATAAAGGTAACGGAAATGATAGCAGTAAAGGGAAAAGTAAAGAGAAAAACTTGTCAAAGATAGCAGTCGCAATACCTCGTATTGCTTGTAATCGAATTATCATGGGCCACAGTAATCAAAATCCAAATCTGGGTACGATCAAAGAAATAGAATTACCAAAAATTATTAAAAATATGATATA

tested on: E. necator; assay: Leaf disc assay, dry inoculum (settling tower), decrease in disease severity / hyphal growth (Example 2); details: decrease in disease severity (hyphal growth) relative to untreated control; time point 1 (untreated control hyphal growth ≥50%); value ± SE

Point of comparison: B1, “% decrease =/− SE TP1” value 4 ± 6%. Against it:
- B2 — higher, 16 ± 5%
- B3 — within error, 3 ± 7%
- B4 — within error, 5 ± 5%
- B5 — within error, 8 ± 5%
- B6 — higher, 19 ± 6%
- B7 — higher, 41 ± 5%

same assay, conditions: decrease in disease severity (hyphal growth) relative to untreated control; time point 2; value ± SE

Point of comparison: B3, “% decrease =/− SE TP2” value 4 ± 7%. Against it:
- B1 — within error, 0 ± 6%
- B2 — the same, 4 ± 5%
- B5 — within error, 3 ± 6%
- B8 — the same, 4 ± 7%
- B6 — higher, 19 ± 6%
- B7 — higher, 31 ± 7%

Source: patent publication US12077763B2, “RNA-based control of powdery mildew” (Greenlight Biosciences, Inc., priority 2021, dated 2024)
